Data published in publication PMC7235819, “Advanced Resistance Studies Identify Two Discrete Mechanisms in Staphylococcus aureus to Overcome Antibacterial Compounds that Target Biotin Protein Ligase” (Antibiotics, 2020).
≈ marks a conversion by molar mass, not a printed value.

Legend:
[1] = target: Staphylococcus aureus biotin protein ligase (SaBPL), wildtype (S. aureus Mu50); assay: native MS; native nESI-MS (Waters Synapt G1 HDMS), holo protein (biotinyl-5'-AMP bound); 10 uM wildtype SaBPL; SaBPL-D200E at 1.4 to 90 uM; monomer to dimer
[2] = target: T1, biotin protein ligase (SaBPL-D200E) (Staphylococcus aureus, UniProt A0A3A5LBF0, D200E); assay: native nESI-MS of holo protein (monomer); type: binding
T1 construct: gene birA; recombinant SaBPL-D200E

[3] = target: T2, biotin protein ligase (SaBPL) (Staphylococcus aureus, UniProt A0A3A5LBF0); assay: native nESI-MS of holo protein (homodimer); type: binding
T2 construct: gene birA; recombinant SaBPL

[4] = test system: T3, Staphylococcus aureus NCTC-8325; assay: microbe, parasite or virus in culture; set-up: antimicrobial susceptibility assay, MIC, growth inhibition of S. aureus parent strain; conditions: NCTC8325
T3 construct: NCTC 8325
Description: The ability of S. aureus to develop resistance to BASA was investigated using both spontaneous resistance and serial passage approaches. The S. aureus NCTC 8325 strain was selected due to the availability of a sequenced reference genome for comparative sequence analysis. To measure the rate at which spontaneous resistance develops, 10^9 S. aureus cells were plated onto media containing four times the MIC of BASA. No resistant mutants grew after 24 hours which equates to a calculated resistance frequency of <10^−9 at this inhibitor concentration. BASA resistant S. aureus strains were subsequently generated by the serial passage of seven populations of S. aureus NCTC 8325 in sub-inhibitory concentrations of BASA for 18 days at which time individual colonies were isolated. These were then passaged on non-selective media to verify that the inherited resistance was genetically stable. The sensitivity of the strains to BASA was then established using antimicrobial sensitivity assays (Table 2 and Figure S8A). The isotypic parent strain was highly sensitive to BASA, with an MIC of 0.0625 µg/mL. […] To determine if there was a fitness cost associated with these mutations, in vitro growth curves for the seven strains were analyzed and doubling times calculated (Table 2, Figure S8B). […] To test if the resistance mechanisms identified were specific for BASA, all seven strains were subjected to antibacterial susceptibility assays against a panel of diverse antibiotics that included two known BPL inhibitors, namely biotinol-5′-AMP [32] and BPL223 (compound 4c in [30]). The evolved resistance mechanisms appeared specific to the BPL inhibitors as there was no change in susceptibility to β-lactams amoxicillin and methicillin (Table S1).

[5] = test system: O=C(O)CCCC[C@@H]1SC[C@@H]2NC(=O)N[C@@H]21; assay: purified protein; conditions: MgATP biotin-binding pocket (biotin-binding loop residues […])
[6] = test system: O=C(O)CCCC[C@@H]1SC[C@@H]2NC(=O)N[C@@H]21; assay: in vitro protein biotinylation assay, Km; type: biochemical, Staphylococcus aureus; conditions: MgATP biotin-binding pocket (biotin-binding loop residues […])
[7] = target: SaBPL (biotin protein ligase, BirA) wild type (Staphylococcus aureus Mu50, UniProt A0A0H3JRH8 1-323); assay: EMSA; 100 uM biotin + MgATP, 2.5% DMSO (control for BASA); EMSA adapted from cited protocols; buffer, salt, pH and temperature not given; BASA or biotin at 100 uM with 2.5% DMSO in the Fig S7 assays; conditions: protein: recombinant

Staphylococcus aureus biotin protein ligase (SaBPL), wildtype (enzyme)
stoichiometry N [1]: 2

Nc1ncnc2c1ncn2[C@@H]1O[C@H](COP(=O)(O)OC(=O)CCCC[C@@H]2SC[C@@H]3NC(=O)N[C@@H]32)[C@@H](O)[C@H]1O [biotinyl-5′-AMP]
native nESI-MS of holo protein (monomer) [2]: native nESI–MS provided sufficient mass resolution to confirm the presence of bound biotinyl-5′-AMP | native nESI-MS of holo protein (homodimer) [3]: SaBPL underwent a well-characterized monomer-to-dimer transition induced by biotinyl-5′-AMP (Figure 3A,B)

Nc1ncnc2c1ncn2[C@@H]1O[C@H](COP(=O)(O)OCCCCC[C@@H]2SC[C@@H]3NC(=O)N[C@@H]32)[C@@H](O)[C@H]1O [biotinol-5'-AMP, biotinol-5′-AMP]
MIC [4]: 1 µg/mL (≈ 1.79 µM)

CC1(C)S[C@@H]2[C@H](NC(=O)[C@H](N)c3ccc(O)cc3)C(=O)N2[C@H]1C(=O)O [amoxicillin]
MIC [4]: 16 µg/mL (≈ 43.8 µM)

COc1cccc(OC)c1C(=O)N[C@@H]1C(=O)N2[C@@H]1SC(C)(C)[C@@H]2C(=O)O [methicillin]
MIC [4]: 2 µg/mL (≈ 5.26 µM)

biotin protein ligase (SaBPL) (Staphylococcus aureus)
Km [5]: 1.8 ± 0.3 µM

biotin protein ligase (SaBPL-D200E) (Staphylococcus aureus; D200E)
Km [6]: 3.8 ± 0.4 µM

B1: bioO (dsDNA)
DNA 1: CCTTAAATGTAAACTTTTATAATTAATAAGTTTACATTTAAG
DNA 2: CCTTAAATGTAAACTTATTAATTATAAAAGTTTACATTTAAGG
binding result ([7]; bottom strand 5' overhang 1 nt as printed (top 42 nt lacks the final G)): binds

B2: bioY (dsDNA)
DNA 1: AACTTATTGTAAACTTTTCATTTCTTAAAGTTTACAATGGTGCT
DNA 2: AGCACCATTGTAAACTTTAAGAAATGAAAAGTTTACAATAAGTT
binding result ([7]; blunt): binds
